Paper doi:10.1101/2020.04.15.043356 (bioRxiv, 2020)

B1: 6xHis-Grh1 (natural protein, S. cerevisiae, UniProt Q04410 1-372, looked up)
chain: MFRIAKNLVRTFEQSVQDTLALSQDSSNLDAFFQSIPPNLLSAQLESPVDAVSEGVKHTNVNETLSGLRIVWVDEMQFQLQSFFDYIVGFNDDPVPVVSNQHGFSYPDYRRITSIFNEHCGRTLKVNIWSAKGGTFRDEYISIISKESDDLDDVSLNHDERRPSSGEAHQFQALGFKVQWTPLIASTFTYHILNVNIPDGPAQSAGLIPDEDYIIGCQDGLLATGGETLLQDIVRSRANYDLVLYVYNKVSDCVRPITVHIGPDGRLGCNVGYGFLHRIPTVKHCPQQAQQQGQDDNPVPVPVPVESETAFVPSAFTAPPVPTKKKSKNKKGTQPLAMDDYFNEGRDKSSTAAKSAESDILAPPPQKQSSSD
B2: GST-Sec23 (natural protein, S. cerevisiae)
chain: MDFETNEDINGVRFTWNVFPSTRSDANSNVVPVGCLYTPLKEYDELNVAPYNPVVCSGPHCKSILNPYCVIDPRNSSWSCPICNSRNHLPPQYTNLSQENMPLELQSTTIEYITNKPVTVPPIFFFVVDLTSETENLDSLKESIITSLSLLPPNALIGLITYGNVVQLHDLSSETIDRCNVFRGDREYQLEALTEMLTGQKPTGPGGAASHLPNAMNKVTPFSLNRFFLPLEQVEFKLNQLLENLSPDQWSVPAGHRPLRATGSALNIASLLLQGCYKNIPARIILFASGPGTVAPGLIVNSELKDPLRSHHDIDSDHAQHYKKACKFYNQIAQRVAANGHTVDIFAGCYDQIGMSEMKQLTDSTGGVLLLTDAFSTAIFKQSYLRLFAKDEEGYLKMAFNGNMAVKTSKDLKVQGLIGHASAVKKTDANNISESEIGIGATSTWKMASLSPYHSYAIFFEIANTAANSNPMMSAPGSADRPHLAYTQFITTYQHSSGTNRIRVTTVANQLLPFGTPAIAASFDQEAAAVLMARIAVHKAETDDGADVIRWLDRTLIKLCQKYADYNKDDPQSFRLAPNFSLYPQFTYYLRRSQFLSVFNNSPDETAFYRHIFTREDTTNSLIMIQPTLTSFSMEDDPQPVLLDSISVKPNTILLLDTFFFILIYHGEQIAQWRKAGYQDDPQYADFKALLEEPKLEAAELLVDRFPLPRFIDTEAGGSQARFLLSKLNPSDNYQDMARGGSTIVLTDDVSLQNFMTHLQQVAVSGQA

What was measured:
[1] = molecular target: B2; test: pull-down
[2] = molecular target: Sec13/Sec31 outer coat complex (wild type, His tag removed) (S. cerevisiae, UniProt Q04491 1-297; P38968 1-1273); test: pull-down
Sec13/Sec31 outer coat complex (wild type, His tag removed), sequence (Q04491 whole entry, chain 1 of 2): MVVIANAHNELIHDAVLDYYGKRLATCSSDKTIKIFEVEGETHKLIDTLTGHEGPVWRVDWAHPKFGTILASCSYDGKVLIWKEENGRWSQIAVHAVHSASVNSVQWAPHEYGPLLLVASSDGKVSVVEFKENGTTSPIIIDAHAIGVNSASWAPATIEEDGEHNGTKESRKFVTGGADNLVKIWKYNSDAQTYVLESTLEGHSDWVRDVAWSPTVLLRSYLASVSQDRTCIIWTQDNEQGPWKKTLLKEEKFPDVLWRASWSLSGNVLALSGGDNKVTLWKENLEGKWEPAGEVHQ
Sec13/Sec31 outer coat complex (wild type, His tag removed), sequence (P38968 whole entry, chain 2 of 2): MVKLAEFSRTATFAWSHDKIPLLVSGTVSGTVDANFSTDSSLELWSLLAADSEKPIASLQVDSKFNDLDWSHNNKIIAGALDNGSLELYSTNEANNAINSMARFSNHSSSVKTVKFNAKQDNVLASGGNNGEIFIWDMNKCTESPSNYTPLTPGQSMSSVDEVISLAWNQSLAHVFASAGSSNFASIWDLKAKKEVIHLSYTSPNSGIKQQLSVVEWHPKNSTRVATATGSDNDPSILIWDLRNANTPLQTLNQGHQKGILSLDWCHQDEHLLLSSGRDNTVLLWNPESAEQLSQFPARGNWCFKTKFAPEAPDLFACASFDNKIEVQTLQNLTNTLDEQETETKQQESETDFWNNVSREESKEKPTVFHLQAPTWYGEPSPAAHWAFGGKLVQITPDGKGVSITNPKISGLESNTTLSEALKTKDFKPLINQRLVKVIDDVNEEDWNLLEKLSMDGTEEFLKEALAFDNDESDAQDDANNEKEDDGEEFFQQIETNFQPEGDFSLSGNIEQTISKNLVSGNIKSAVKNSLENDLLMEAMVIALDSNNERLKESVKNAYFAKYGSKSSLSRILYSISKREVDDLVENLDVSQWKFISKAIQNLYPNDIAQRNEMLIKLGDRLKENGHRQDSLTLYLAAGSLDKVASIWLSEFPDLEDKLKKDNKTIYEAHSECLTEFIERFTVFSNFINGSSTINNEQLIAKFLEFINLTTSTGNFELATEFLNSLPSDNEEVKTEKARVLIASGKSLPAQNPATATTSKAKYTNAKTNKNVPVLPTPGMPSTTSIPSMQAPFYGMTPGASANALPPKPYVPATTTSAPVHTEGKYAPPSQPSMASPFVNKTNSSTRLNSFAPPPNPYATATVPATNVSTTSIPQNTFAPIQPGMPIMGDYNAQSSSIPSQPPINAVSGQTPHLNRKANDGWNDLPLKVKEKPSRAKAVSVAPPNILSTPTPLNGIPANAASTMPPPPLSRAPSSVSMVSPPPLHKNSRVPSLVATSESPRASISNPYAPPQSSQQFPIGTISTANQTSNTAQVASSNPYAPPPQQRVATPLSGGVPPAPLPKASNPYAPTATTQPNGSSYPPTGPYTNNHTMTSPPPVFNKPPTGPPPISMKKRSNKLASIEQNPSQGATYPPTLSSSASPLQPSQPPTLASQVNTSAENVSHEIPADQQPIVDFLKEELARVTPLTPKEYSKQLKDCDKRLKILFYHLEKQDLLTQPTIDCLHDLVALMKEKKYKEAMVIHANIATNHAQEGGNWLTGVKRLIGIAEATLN

binding result [1] | binding result [2] | Binder
binds | – | B1
– | binds | B2
